Substrate: OC[C@H]1O[C@@H](n2cnc3c(O)ncnc32)[C@H](O)[C@@H]1O
Assay: purified protein
Settings: […] hPNP

B1: human purine nucleoside phosphorylase (hPNP) (Homo sapiens) (protein)
chain: MENGYTYEDYKNTAEWLLSHTKHRPQVAIICGSGLGGLTDKLTQAQIFDYGEIPNFPRSTVPGHAGRLVFGFLNGRACVMMQGRFHMYEGYPLWKVTFPVRVFHLLGVDTLVVTNAAGGLNPKFEVGDIMLIRDHINLPGFSGQNPLRGPNDERFGDRFPAMSDAYDRTMRQRALSTWKQMGEQRELQEGTYVMVAGPSFETVAECRVLQKLGADAVGMSTVPEVIVARHCGLRVFGFSLITNKVIMDYESLEKANHEEVLAAGKQAAQKLEQFVSILMASIPLPDKAS
  Km: 68.92 ± 4.08 µM

— publication doi:10.1101/2024.05.16.594462v2
